Results from the supplement of paper PMC12764529.
± gives the half width of the 95% confidence interval.

Assay: folding stability dG unfold from chymotrypsin proteolysis; higher = more stable
Procedure, shortened: (§1)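 Mini-proteins designed to be under 80 residues and free of cysteine were carried in a PA-tagged cDNA display construct and digested with trypsin and with chymotrypsin. Each protease was applied at 11 threefold-diluted concentrations, alongside a no-protease condition, before sequencing. K50 came from Bayesian fitting of the sequencing counts, and unfolding free energy was obtained by comparing it with a sequence-predicted unfolded-state K50 and a shared folded-state K50, for each protease separately or for both together. Designs were retained only if their AlphaFold2 dimer inter-PAE exceeded 15.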

Sequence	folding stability dG unfold
GSEIKAGRARSSDGTGRIRVVLEREDGSSVEFELDLPGLPGDTFYLDLPESLPLKAKETWVYVDDKPYPVTS [r1_70_TrMRF]	1.25 ± 0.037 kcal/mol
SAGGSAGGSPWRRIPISSPEQILDWLEEMLPPGFNLTPEMAEQMVDYFLKNFEVDPNGYLWVRSAGGSAGGS [r12_983_TrROS]	1.82 ± 0.21 kcal/mol
SAGGSAGGSKVIPITFPKSLSLEQIEDFVRKIAAESGAKVKSVKIVDVDPENNRVTVLVEVEGSAGGSAGGS [r12_168_TrMRF]	3.34 ± 0.038 kcal/mol
SAGDLSPSDTVDLEVTPVKVGDKWVHEVRVTVTLPDGSSLRSTLRLPPELGPPRRGRLSVPEFVALVAASAG [r5_831_JUSTAS]	2.39 ± 0.044 kcal/mol
SAMKNMTPEEVAKLIEEEIRKLYPNAEVKVEVLDAPEDYLVLKVHVTVIEPEEEGEIREFPFLVVIDLSSAG [r14_187_TrMRF]	3.31 ± 0.062 kcal/mol
SAGMTPEEVAEELREKLGLKEVTIERDPAADTLTITVTLPSPGETKTAVVPASALTPEAIRELLLEVLSSAG [r5_896_JUSTAS]	2.4 ± 0.024 kcal/mol
SAGHQIVKRLARHMQEQGYPIEVDVTVEPYPDDGWVEITIDIEMQNEDGKWQPIGPITIYIPKEDANKLSAG [r5_413_TrROS]	1.44 ± 0.11 kcal/mol
SAGGGALSPEEALGKPVTALVEVGGKPYLATYTLKPTPDGWLLEVTVYDPSTGTPTTRTLDWDDVEFESAGG [r13_289_TrMRF]	2.232 ± 0.022 kcal/mol
SAGGSASMTLYRDEEGKPLFHHSPEPTSSVPRVVPVVNEEGDEKLEIEIPADTPLEELEAIIEELLSAGGSA [r15_309_JUSTAS]	-0.33 ± 0.18 kcal/mol
SAGGSAGGSAGGKPFKVLSVEPLEIGDKKYLRVRFEDGRVYEFPVSFDFGPDGNNVLPVESAGGSAGGSAGG [r7_931_TrMRF]	2.59 ± 0.045 kcal/mol
SAGGSAGGSAGKEIKVETEENPNGQHPVKIEIYDGGNPRPIEFPVDSPEDAEDWAKELLKSAGGSAGGSAGG [r11_560_TrROS]	0.148 ± 0.031 kcal/mol
SAGGSAGGSSGPTLTIRYSILVSDSDGNWYALVFEARIYPNGDVEIRYRLYSYKDIPPGASPTSAGGSAGGS [r12_38_TrMRF]	4.85 ± 0.093 kcal/mol
SAGGSAMKEITIEVDGKTVRVKVYFKDTGKVVERTFPKGTSVEELAKELEEEFGKDVEIVEVEEVPSAGGSA [r15_544_TrROS_Hall]	3.57 ± 0.11 kcal/mol
SAGKITINVMMNPDGNYYVKIRIGGDGEPIMEFPVDSPEDAEEKAKAFADNLAKKYPNYKIEVDYMPFDSAG [r5_383_TrROS]	3.06 ± 0.066 kcal/mol
SAGGSAKAEEIAKLLKELGFKEVKIEKDKETNKVTITVKKKDGSEIKITIDKKTKKIVKIEIKPKKSAGGSA [r15_648_TrROS_Hall]	1.78 ± 0.27 kcal/mol
SKPMSPRDQLREIADDIAEKLNEKNGKPYKVRVEFEYPNMPFEIEIPPEAPIEDIMDHFPGWKIKVEIEPSA [r9_513_TrROS]	0.0344 ± 0.32 kcal/mol
SAGGSAKEIKAEVKVDPETGTVTVKVYYDGKLVAEATATVEPNGEIKEVNFFFEVDPETGKLIVTGSAGGSA [r15_770_TrMRF]	3.07 ± 0.059 kcal/mol
MLLEFESEEELEKAIKELIEKAKKEVEEKGKKNEELKINIPVILHDKETGKETTRPITINIKPDGKITILDS [r1_316_JUSTAS]	1.05 ± 0.13 kcal/mol
SAGGSAGGSMPDLRPAPVPALVIPLDLPLEEAIEKARELLDLPEDTEIPIAEFDPETGKIVIASAGGSAGGS [r12_815_TrMRF]	1.94 ± 0.051 kcal/mol
SAGGMKITEEAIKNFPPGRWIQFRIPDDGYMVTIRVHDPGEIKINYRKFPPGNGEPREEQEHKIPLDSAGGS [r16_163_TrROS]	0.825 ± 0.28 kcal/mol
SAGGSAGGSTPTEFAKNLNVTEVKYDPVKKTVRVIHEFEDYLVLVEYDPSTGEVRVEVFSKDESAGGSAGGS [r12_214_TrMRF]	2.05 ± 0.12 kcal/mol

Assay: folding stability dG unfold (combined trypsin and chymotrypsin); higher = more stable
Procedure, shortened: as §1

Sequence	folding stability dG unfold
SAGGSAGGSPPVKYRITIEMKDPNGKEHTHTIEIPGMNPDDAKEFLEDIPIPPGIKDVEIEPYSAGGSAGGS [r12_886_TrROS]	-0.148 ± 0.24 kcal/mol
SAGGSAGGSPSVVTLVSPDYYAEAFYFPDFVLVVLYDPEKGPPQVFLVSNENGELKFFPASEASAGGSAGGS [r12_632_TrMRF]	2.85 ± 0.18 kcal/mol
SAGGSASPSEVRTITATLPGGVVREFEVKMPPGTTVYIPEEGKTITVPPDSSLPLPPDVSVEVRLESAGGSA [r15_152_JUSTAS]	-0.148 ± 0.058 kcal/mol
SKKVEVKEIEIKLADGSKVKAKIVKLPDGTYRIFVEFPDGRVAVFEIDVNGKIVKVKPLEVFSLEELKKKSA [r9_1075_TrROS_Hall]	1.17 ± 0.22 kcal/mol
SAGGSAGGSKKKVVIEVVIKVKKEDEEKIKKALEKELEKLGFKVKEVKVERTKNYVKVTVVLESAGGSAGGS [r12_731_TrROS_Hall]	3.63 ± 0.28 kcal/mol
SAGDPDRPLGPVEITVDPEENTLTITFGDLTLTLPLPEGVEATAEVFPDHVVLTVRYPDGTIRTFVFPLSAG [r5_21_TrMRF]	5.06 ± 0.16 kcal/mol
APKPPVLVVEVVVLFPKEDPEVRELTVEEIAELAAEELTAHPDFKPVKVEVLSAEEHPDGYYTVTLKVTHVS [r1_484_TrMRF]	2.42 ± 0.1 kcal/mol
SAGGSPSITVSESSDPATGTRTLTITVPSSAPSATLNIVVSGSGPPVSSKTVTVPPGTTVTITYTTTSAGGS [r16_412_JUSTAS]	2.61 ± 0.056 kcal/mol
SAGGSAGGSAGMKVTATSLNPASGTVTVKFSDGTTRTFSSVEALKAAIPEGVPIEIAPAVSAGGSAGGSAGG [r17_295_JUSTAS]	2.36 ± 0.051 kcal/mol
SAGGSAGGSGKKRKVEIPIFFSGPPEVADNLAKTLAQELGLPPEDVDIEIKVIPIMPPEQMAESAGGSAGGS [r12_1066_TrROS]	0.721 ± 0.076 kcal/mol
SAGGSAMKITYKPPSGETTVHPIPPGLTPEERRALAEELAKALQEKTGDPNVTVEFDPATGEITVASAGGSA [r15_33_JUSTAS]	0.84 ± 0.11 kcal/mol
SMKVKIKIEVYKPENKLIVKVYFPEIGKEIVFEFDSLEGLFEKIKKELGLKEENIEIVEVKVKEVDPSELSA [r9_909_TrMRF]	2.2 ± 0.18 kcal/mol
SAGGSAGGENNIEVYYVEVKVPDPSIPLSVVLEKLPLPPEFLTVTPVEVKPPDGTVLIAIYRDSSAGGSAGG [r6_955_TrMRF]	0.409 ± 0.089 kcal/mol
SAGGSAGGAPPDARVTIEVELKNPDGTPISEEEVIEKLKPLGLEPVEIDVDPETGKVTITVRVLSAGGSAGG [r6_774_JUSTAS]	1.41 ± 0.083 kcal/mol
SAGGPDDMKIIEETTIRFPENGMQFNIRIYKLPDNDVFIEAEMIMPNGKPVGRMEARVPNGKPIEIPFSAGG [r13_573_TrROS]	1.36 ± 0.087 kcal/mol
SAGKKIEIDMSLEELKKLPGIKKVEVKNGKVYLEVDGKKIEITIRPPKPVLEFKEGMSEEEKKELLKKLSAG [r5_2_TrROS_Hall]	1.22 ± 0.21 kcal/mol
SAGGSAGGSAGGSDPVKVTVTFTATVTVTLPDGGTAPVTLTVTVTAELPPGQSVEDFVASAGGSAGGSAGGS [r4_126_TrMRF]	3.3 ± 0.073 kcal/mol
SAGGSAGGSAVITTETGGDSTVTTTTSLTGEGGTLTTTTTTTTTDGTTTTTTTTTDTGLSPTSSAGGSAGGS [r12_769_JUSTAS]	2.16 ± 0.034 kcal/mol
IVISPSMLRDARRQGIPKELLKKAKNVIIWSSNGNPEWAKELKEWPGVKKIKPVPPGDPDKQKDADHVIHFS [r1_248_TrROS]	-0.482 ± 0.29 kcal/mol
SAGGSAGGSAKSFWIDSPEQAEELADELQQKGPNVEPTVERDDNNGWYQLEIPNGKDIVIWGSAGGSAGGSA [r18_154_TrROS]	0.272 ± 0.24 kcal/mol
SAGGSAMKVEIVLKVPGDEMLDIEVDEEFPVVDQTIDKETGIVTVLLEGDPEKAEEIAKEIAEKLGSAGGSA [r15_662_TrMRF]	0.511 ± 0.1 kcal/mol

Sequence	folding stability dG unfold
GSEIKAGRARSSDGTGRIRVVLEREDGSSVEFELDLPGLPGDTFYLDLPESLPLKAKETWVYVDDKPYPVTS [r1_70_TrMRF]	1.08 ± 0.067 kcal/mol
SAGGSAGGSPWRRIPISSPEQILDWLEEMLPPGFNLTPEMAEQMVDYFLKNFEVDPNGYLWVRSAGGSAGGS [r12_983_TrROS]	1.89 ± 0.14 kcal/mol
SAGGSAGGSKVIPITFPKSLSLEQIEDFVRKIAAESGAKVKSVKIVDVDPENNRVTVLVEVEGSAGGSAGGS [r12_168_TrMRF]	3.31 ± 0.079 kcal/mol
SAGDLSPSDTVDLEVTPVKVGDKWVHEVRVTVTLPDGSSLRSTLRLPPELGPPRRGRLSVPEFVALVAASAG [r5_831_JUSTAS]	2.14 ± 0.11 kcal/mol
SAMKNMTPEEVAKLIEEEIRKLYPNAEVKVEVLDAPEDYLVLKVHVTVIEPEEEGEIREFPFLVVIDLSSAG [r14_187_TrMRF]	3.33 ± 0.09 kcal/mol
SAGMTPEEVAEELREKLGLKEVTIERDPAADTLTITVTLPSPGETKTAVVPASALTPEAIRELLLEVLSSAG [r5_896_JUSTAS]	2.58 ± 0.048 kcal/mol
SAGHQIVKRLARHMQEQGYPIEVDVTVEPYPDDGWVEITIDIEMQNEDGKWQPIGPITIYIPKEDANKLSAG [r5_413_TrROS]	1.34 ± 0.17 kcal/mol
SAGGGALSPEEALGKPVTALVEVGGKPYLATYTLKPTPDGWLLEVTVYDPSTGTPTTRTLDWDDVEFESAGG [r13_289_TrMRF]	1.87 ± 0.04 kcal/mol
SAGGSASMTLYRDEEGKPLFHHSPEPTSSVPRVVPVVNEEGDEKLEIEIPADTPLEELEAIIEELLSAGGSA [r15_309_JUSTAS]	-0.0861 ± 0.096 kcal/mol
SAGGSAGGSAGGKPFKVLSVEPLEIGDKKYLRVRFEDGRVYEFPVSFDFGPDGNNVLPVESAGGSAGGSAGG [r7_931_TrMRF]	2.37 ± 0.043 kcal/mol
SAGGSAGGSAGKEIKVETEENPNGQHPVKIEIYDGGNPRPIEFPVDSPEDAEDWAKELLKSAGGSAGGSAGG [r11_560_TrROS]	-0.0496 ± 0.079 kcal/mol
SAGGSAGGSSGPTLTIRYSILVSDSDGNWYALVFEARIYPNGDVEIRYRLYSYKDIPPGASPTSAGGSAGGS [r12_38_TrMRF]	4.7 ± 0.067 kcal/mol
SAGGSAMKEITIEVDGKTVRVKVYFKDTGKVVERTFPKGTSVEELAKELEEEFGKDVEIVEVEEVPSAGGSA [r15_544_TrROS_Hall]	3.24 ± 0.15 kcal/mol
SAGKITINVMMNPDGNYYVKIRIGGDGEPIMEFPVDSPEDAEEKAKAFADNLAKKYPNYKIEVDYMPFDSAG [r5_383_TrROS]	3.64 ± 0.12 kcal/mol
SAGGSAKAEEIAKLLKELGFKEVKIEKDKETNKVTITVKKKDGSEIKITIDKKTKKIVKIEIKPKKSAGGSA [r15_648_TrROS_Hall]	1.99 ± 0.25 kcal/mol
SKPMSPRDQLREIADDIAEKLNEKNGKPYKVRVEFEYPNMPFEIEIPPEAPIEDIMDHFPGWKIKVEIEPSA [r9_513_TrROS]	0.0339 ± 0.52 kcal/mol
SAGGSAKEIKAEVKVDPETGTVTVKVYYDGKLVAEATATVEPNGEIKEVNFFFEVDPETGKLIVTGSAGGSA [r15_770_TrMRF]	2.97 ± 0.066 kcal/mol
MLLEFESEEELEKAIKELIEKAKKEVEEKGKKNEELKINIPVILHDKETGKETTRPITINIKPDGKITILDS [r1_316_JUSTAS]	1.01 ± 0.23 kcal/mol
SAGGSAGGSMPDLRPAPVPALVIPLDLPLEEAIEKARELLDLPEDTEIPIAEFDPETGKIVIASAGGSAGGS [r12_815_TrMRF]	1.57 ± 0.039 kcal/mol
SAGGMKITEEAIKNFPPGRWIQFRIPDDGYMVTIRVHDPGEIKINYRKFPPGNGEPREEQEHKIPLDSAGGS [r16_163_TrROS]	0.917 ± 0.27 kcal/mol
SAGGSAGGSTPTEFAKNLNVTEVKYDPVKKTVRVIHEFEDYLVLVEYDPSTGEVRVEVFSKDESAGGSAGGS [r12_214_TrMRF]	1.84 ± 0.24 kcal/mol
